The target of the assay is T1, β2 microglobulin (human, UniProt P61769 21-119).
T1 construct: The 12 kD band on its own, as probed by Western blotting; also called molecule of approximately 12 KD
The assay can be described thus: Western blotting with the 2D7 antibody. An excerpt: As a result, a molecule (approximately 12 kD) that precipitates specifically in RPMI8226 and U266 cells was observed (FIG. 3). This molecule was not detected by Western blotting using the 2D7 antibody, but since it is at least reproducibly precipitated by the 2D7 antibody, it was strongly predicted to be the 2D7 antigen itself, or a molecule that co-precipitates with the 2D7 antigen.

Results on 1 molecule are retold here after patent US20080274110A1 (published 2008).

T1 sequence (P61769 21-119 limits assumed): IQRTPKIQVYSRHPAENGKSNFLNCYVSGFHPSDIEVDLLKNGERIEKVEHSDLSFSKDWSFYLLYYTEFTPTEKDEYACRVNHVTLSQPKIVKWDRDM

B1: 2D7 antibody (antibody, mouse IgG2b, V domains shown)
VH: QVQLQQSGPELVKPGASVKMSCKASGYTFTDYFIHWVKQRPGQGLEWIGWIFPGDDTTDYNEKFRGKTTLTADKSSSTAYILLSSLTSEDSAMYFCVRSDDFDYWGQGTTLTVSS
VL: QIVLTQSPAIMSASPGEKVTITCSASSSVSYMHWFQQKPGTFPKLWIYSTSNLASGVPTRFSGSGSGTSYSLTISRMEAEDAATYYCQQRTSYPPTFGSGTKLEIK
notes: Whole mouse monoclonal antibody purified on Protein A from ascites of the 2D7 hybridoma (University of Tokushima); Primers for mouse IgG2b constant regions were used to clone its variable regions
With B1, the binding result is recorded as “no binding”.
